Patent publication US20190315842A1

What was measured:
Sm (sphingomyelin) [1] = test: AtheNA Multi-Lyte ANA, Ab at 25 ug/ml
centromere B (CentB) [2] = target: centromere B (CentB) (UniProt P07199); test: AtheNA Multi-Lyte ANA, Ab at 25 ug/ml
[3] = target: histidine-tRNA ligase (Jo-1) (UniProt P12081); test: AtheNA Multi-Lyte ANA, Ab at 25 ug/ml
histones [4] = test: AtheNA Multi-Lyte ANA, Ab at 25 ug/ml
ribonucleoprotein (RNP) [5] = test: AtheNA Multi-Lyte ANA, Ab at 25 ug/ml
[6] = target: sclerosis autoantigen (Scl-70) (UniProt P11387); test: AtheNA Multi-Lyte ANA, Ab at 25 ug/ml
[7] = target: systemic lupus erythematosus autoantigen SSA; test: AtheNA Multi-Lyte ANA, Ab at 25 ug/ml
[8] = target: systemic lupus erythematosus autoantigen SSB (UniProt P05455); test: AtheNA Multi-Lyte ANA, Ab at 25 ug/ml
Sm (sphingomyelin) [9] = test: AtheNA Multi-Lyte ANA, Ab at 50 ug/ml
centromere B (CentB) [10] = target: centromere B (CentB) (UniProt P07199); test: AtheNA Multi-Lyte ANA, Ab at 50 ug/ml
[11] = target: histidine-tRNA ligase (Jo-1) (UniProt P12081); test: AtheNA Multi-Lyte ANA, Ab at 50 ug/ml
histones [12] = test: AtheNA Multi-Lyte ANA, Ab at 50 ug/ml
ribonucleoprotein (RNP) [13] = test: AtheNA Multi-Lyte ANA, Ab at 50 ug/ml
[14] = target: sclerosis autoantigen (Scl-70) (UniProt P11387); test: AtheNA Multi-Lyte ANA, Ab at 50 ug/ml
[15] = target: systemic lupus erythematosus autoantigen SSA; test: AtheNA Multi-Lyte ANA, Ab at 50 ug/ml
[16] = target: systemic lupus erythematosus autoantigen SSB (UniProt P05455); test: AtheNA Multi-Lyte ANA, Ab at 50 ug/ml

centromere B (CentB), sequence (P07199 2-599): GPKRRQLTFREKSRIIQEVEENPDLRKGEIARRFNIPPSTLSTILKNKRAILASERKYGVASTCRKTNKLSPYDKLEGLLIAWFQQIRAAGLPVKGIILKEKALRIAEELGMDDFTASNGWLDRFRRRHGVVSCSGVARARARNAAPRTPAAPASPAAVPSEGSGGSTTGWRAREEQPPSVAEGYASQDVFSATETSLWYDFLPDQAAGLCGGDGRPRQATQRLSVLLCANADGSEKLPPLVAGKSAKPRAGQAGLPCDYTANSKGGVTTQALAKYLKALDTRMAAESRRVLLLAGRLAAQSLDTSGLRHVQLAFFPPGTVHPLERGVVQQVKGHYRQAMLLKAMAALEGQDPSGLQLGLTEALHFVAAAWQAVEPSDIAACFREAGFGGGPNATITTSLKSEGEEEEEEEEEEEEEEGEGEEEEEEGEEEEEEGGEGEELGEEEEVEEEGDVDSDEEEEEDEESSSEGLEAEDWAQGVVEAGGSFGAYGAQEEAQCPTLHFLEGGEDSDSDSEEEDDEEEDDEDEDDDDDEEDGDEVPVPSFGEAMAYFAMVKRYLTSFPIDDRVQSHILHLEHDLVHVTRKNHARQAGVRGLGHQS
sclerosis autoantigen (Scl-70), sequence (P11387 2-765 limits assumed): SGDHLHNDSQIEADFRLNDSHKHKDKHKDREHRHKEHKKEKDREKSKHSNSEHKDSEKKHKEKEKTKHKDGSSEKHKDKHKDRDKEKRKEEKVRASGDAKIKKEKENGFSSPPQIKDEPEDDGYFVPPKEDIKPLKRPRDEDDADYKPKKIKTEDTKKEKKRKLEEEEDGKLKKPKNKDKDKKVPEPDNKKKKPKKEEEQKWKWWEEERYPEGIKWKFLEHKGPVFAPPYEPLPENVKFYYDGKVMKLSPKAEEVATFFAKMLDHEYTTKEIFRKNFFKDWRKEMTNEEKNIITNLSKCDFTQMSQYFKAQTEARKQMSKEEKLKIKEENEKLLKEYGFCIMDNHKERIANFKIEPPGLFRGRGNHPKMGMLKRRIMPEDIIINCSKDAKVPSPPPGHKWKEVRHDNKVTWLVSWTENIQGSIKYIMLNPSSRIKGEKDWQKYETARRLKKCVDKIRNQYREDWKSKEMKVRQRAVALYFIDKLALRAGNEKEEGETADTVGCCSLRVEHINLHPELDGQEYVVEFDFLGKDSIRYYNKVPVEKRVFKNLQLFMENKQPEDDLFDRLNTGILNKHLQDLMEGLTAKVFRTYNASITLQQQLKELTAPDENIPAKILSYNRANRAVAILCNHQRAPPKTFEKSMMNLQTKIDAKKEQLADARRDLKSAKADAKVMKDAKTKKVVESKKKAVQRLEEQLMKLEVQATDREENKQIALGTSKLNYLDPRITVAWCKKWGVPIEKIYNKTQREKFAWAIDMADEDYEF
histidine-tRNA ligase (Jo-1), sequence (P12081 2-509): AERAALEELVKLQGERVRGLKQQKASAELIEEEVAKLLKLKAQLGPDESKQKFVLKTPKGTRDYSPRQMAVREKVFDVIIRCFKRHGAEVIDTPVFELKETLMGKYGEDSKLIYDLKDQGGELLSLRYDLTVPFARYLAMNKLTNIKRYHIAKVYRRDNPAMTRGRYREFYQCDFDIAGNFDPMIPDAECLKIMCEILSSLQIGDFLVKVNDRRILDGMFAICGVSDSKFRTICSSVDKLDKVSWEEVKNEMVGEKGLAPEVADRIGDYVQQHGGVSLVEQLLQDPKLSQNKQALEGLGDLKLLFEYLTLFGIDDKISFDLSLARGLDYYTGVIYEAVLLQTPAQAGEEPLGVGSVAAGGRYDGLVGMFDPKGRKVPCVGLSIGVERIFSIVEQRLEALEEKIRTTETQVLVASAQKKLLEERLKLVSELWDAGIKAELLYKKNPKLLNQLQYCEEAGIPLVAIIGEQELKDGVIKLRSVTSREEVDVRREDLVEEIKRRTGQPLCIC
systemic lupus erythematosus autoantigen SSB, sequence (P05455 whole entry): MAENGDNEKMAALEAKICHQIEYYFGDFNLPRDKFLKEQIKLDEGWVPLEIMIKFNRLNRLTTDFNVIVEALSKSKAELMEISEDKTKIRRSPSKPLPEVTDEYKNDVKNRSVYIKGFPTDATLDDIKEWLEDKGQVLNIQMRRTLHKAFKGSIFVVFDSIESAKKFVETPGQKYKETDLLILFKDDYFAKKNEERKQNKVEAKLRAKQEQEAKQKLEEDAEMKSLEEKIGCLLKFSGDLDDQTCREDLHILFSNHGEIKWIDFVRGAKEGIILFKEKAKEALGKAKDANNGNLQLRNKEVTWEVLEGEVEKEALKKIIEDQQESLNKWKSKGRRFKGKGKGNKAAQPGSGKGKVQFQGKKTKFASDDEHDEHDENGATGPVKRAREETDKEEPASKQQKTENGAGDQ

Substance | AtheNA signal (Sm (sphingomyelin) [1]) | AtheNA signal (centromere B (CentB) [2]) | AtheNA signal [3] | AtheNA signal (histones [4]) | AtheNA signal (ribonucleoprotein (RNP) [5]) | AtheNA signal [6] | AtheNA signal [7] | AtheNA signal [8] | AtheNA signal (Sm (sphingomyelin) [9]) | AtheNA signal (centromere B (CentB) [10]) | AtheNA signal [11] | AtheNA signal (histones [12]) | AtheNA signal (ribonucleoprotein (RNP) [13]) | AtheNA signal [14] | AtheNA signal [15] | AtheNA signal [16]
4e10 (Anti HIV, NIH AIDS Reagent Program) (antibody) | 7 | 7 | 124 | 15 | 13 | 3 | 75 | 157 | 11 | 12 | 149 | 20 | 18 | 3 | 92 | 184
SYNAGIS (anti-RSV monoclonal antibody palivizumab) | 2 | 1 | 1 | 1 | 3 | 2 | 2 | 6 | 4 | 1 | 1 | 2 | 1 | 1 | 0 | 5
